B1: Interleukin-1 receptor-associated kinase 1 (Mus musculus), Q62406 (parent)
chain: MAGGPGPGEPVVPGAQHFLYEVPPWVMCRFYKVMDALEPADWCQFAALIVRDQTELRLCERSEQRTASVLWPWINRNARVADLVHILTHLQLLRARDIITAWHPPAPVVPPSTAAPRPSSISAGSEAGDWSPRKLQSSASTFLSPAFPGSQTHSESELLQVPLPVSLGPPLPSSAPSSTKSSPESPVSGLQRAHPSPFCWPFCEISQGTCNFSEELRIGEGGFGCVYRAVMRNTTYAVKRLKEEADLEWTMVKQSFLTEVEQLSRFRHPNIVDFAGYCAESGLYCLVYGFLPNGSLEDQLHLQTQACSPLSWPQRLDILLGTARAIQFLHQDSPSLIHGDIKSSNVLLDERLMPKLGDFGLARFSRFAGAKASQSSTVARTSTVRGTLAYLPEEYIKTGRLAVDTDTFSFGVVILETLAGQRAVRTQGAKTKYLKDLIEDEAEEAGVTLKSTQPTLWVGVATDAWAAPIAAQIYKKHLDSRPGPCPPQLGLALAQLACCCMHRRAKKRPPMTQVYKRLEGLQAGPPWELEVAGHGSPSPQENSYMSTTGSAQSGDEPWQPLVVTTRAPAQAAQQLQRSPNQPVESDESVPGLSATLHSWHLTPGSHPSPASFREASCTQGGTTRESSVRSSPGFQPTTMEGSPTGSSSLLSSEPPQIIINPARQKMVQKLALYEEGVLDSLQLLSSGFFPGLDLEPEKSQGPEESDEFQS

Variants of: B1
Details: with tolip_mouse Tollip

effect of a mutation on the interaction	Variant
decreasing interaction	T66A
